# Laboratory results reported in US20260242478A1 (published 2026).
# B1: Phage-1377 peptide (SEQ ID NO: 1673) (peptide)
# peptide: TCAAGAAYPWPLCF
# B2: Phage-1379 peptide (SEQ ID NO: 1675) (peptide)
# peptide: MCSAGANWPWPLCF
# B3: Phage-1382 peptide (SEQ ID NO: 1678) (peptide)
# peptide: SCAAGAMYSWPTCL
# B4: Phage-1384 peptide (SEQ ID NO: 1680) (peptide)
# peptide: LCAAGAHYPWPQCL
# B5: Phage-1388 peptide (SEQ ID NO: 1684) (peptide)
# peptide: TCSAGATYTWPWCF
# B6: Phage-1378 peptide (SEQ ID NO: 1674) (peptide)
# peptide: TCSAGASNKLSLCL
# B7: Phage-1380 peptide (SEQ ID NO: 1676) (peptide)
# peptide: RCSAGFHYPLSLCL
# B8: Phage-1383 peptide (SEQ ID NO: 1679) (peptide)
# peptide: NCSAGAQWPWPICL
# B9: Phage-1386 peptide (SEQ ID NO: 1682) (peptide)
# peptide: TCSAGATYTWSKCF
# B10: Phage-1385 peptide (SEQ ID NO: 1681) (peptide)
# peptide: TCAAGAHWPWPTCF
# B11: Phage-1387 peptide (SEQ ID NO: 1683) (peptide)
# peptide: LCNAGATYSWPTCL
# B12: Phage-1381 peptide (SEQ ID NO: 1677) (peptide)
# peptide: NCSAGATYPWPLCL
# B13: Phage-1376 peptide (SEQ ID NO: 1672) (peptide)
# peptide: TCAAGATYAWPYCV
# B14: Phage-1445 (peptide-92 library clone, SEQ ID NO: 1741) (peptide)
# peptide: TCAAGASYPWPACL
# notes: Tested as clonal phage supernatant; not shown: fused to the pIII filament of the bacteriophage
# B15: Phage-1434 (peptide-92 library clone, SEQ ID NO: 1730) (peptide)
# peptide: LCNAGAMYKWPTCL
# notes: as for B14
# B16: Phage-1437 (peptide-92 library clone, SEQ ID NO: 1733) (peptide)
# peptide: TCAAGAYWTWPACF
# notes: as for B14
# B17: Phage-1441 (peptide-92 library clone, SEQ ID NO: 1737) (peptide)
# peptide: TCSAGAHYVWPMCF
# notes: as for B14
# B18: Phage-1443 (peptide-92 library clone, SEQ ID NO: 1739) (peptide)
# peptide: TCRAGATYNWPFCL
# notes: as for B14
# B19: Phage-1442 (peptide-92 library clone, SEQ ID NO: 1738) (peptide)
# peptide: TCSAGATYIWPMCF
# notes: as for B14
# B20: Phage-1440 (peptide-92 library clone, SEQ ID NO: 1736) (peptide)
# peptide: TCSAGATWAWPSCF
# notes: as for B14
# B21: Phage-1433 (peptide-92 library clone, SEQ ID NO: 1729) (peptide)
# peptide: PCAAGAMWPWPVCL
# notes: as for B14
# B22: Phage-1435 (peptide-92 library clone, SEQ ID NO: 1731) (peptide)
# peptide: MCSAGAMYPWPLCL
# notes: as for B14
# B23: Phage-1438 (peptide-92 library clone, SEQ ID NO: 1734) (peptide)
# peptide: TCSAGAGYPWPLCY
# notes: as for B14
# B24: Phage-1444 (peptide-92 library clone, SEQ ID NO: 1740) (peptide)
# peptide: TCSAGATWPWPICL
# notes: as for B14
# B25: Phage-1431 (peptide-92 library clone, SEQ ID NO: 1727) (peptide)
# peptide: LCKPGVPNSWPTCL
# notes: as for B14
# B26: Phage-1432 (peptide-92 library clone, SEQ ID NO: 1728) (peptide)
# peptide: TCSAGAHYPWPDCI
# notes: as for B14
# B27: Phage-1439 (peptide-92 library clone, SEQ ID NO: 1735) (peptide)
# peptide: SCSAGASLQLSICL
# notes: as for B14
# B28: Phage-1436 (peptide-92 library clone, SEQ ID NO: 1732) (peptide)
# peptide: TCSAGAMWTWPYCF
# notes: as for B14
# B29: Phage-1452 peptide (SEQ ID NO: 1748) (peptide)
# peptide: LCRAGAMWPWPTCL
# notes: tested as crude clonal phage supernatant
# B30: Phage-1448 peptide (SEQ ID NO: 1744) (peptide)
# peptide: TCTAGFSYNWPMCF
# notes: as for B29
# B31: Phage-1453 peptide (SEQ ID NO: 1749) (peptide)
# peptide: TCSAGATFHWPQCF
# notes: as for B29
# B32: Phage-1451 peptide (SEQ ID NO: 1747) (peptide)
# peptide: TCSAGAYYAWPVCL
# notes: as for B29
# B33: Phage-1446 peptide (SEQ ID NO: 1742) (peptide)
# peptide: SCAAVFSFPWSPCL
# notes: as for B29
# B34: Phage-1449 peptide (SEQ ID NO: 1745) (peptide)
# peptide: TCSAGATYAWPACY
# notes: as for B29
# B35: Phage-1450 peptide (SEQ ID NO: 1746) (peptide)
# peptide: TCSAGATYSWPQCL
# notes: as for B29
# B36: Phage-1447 peptide (SEQ ID NO: 1743) (peptide)
# peptide: TCSAGFSYSWPACF
# notes: as for B29
# Biological target: T1, Anti-CD28 Fab (SEQ ID NOs: 696, 697)
# T1 construct: In the phage ELISA the Fab was biotinylated and captured on neutravidin coated plates
# Test: phage ELISA; clonal phage supernatant on biotinylated anti-CD28 Fab captured on neutravidin plate, anti-M13-HRP detection
# T1 sequence (VH, as listed by the source, chain 1 of 2): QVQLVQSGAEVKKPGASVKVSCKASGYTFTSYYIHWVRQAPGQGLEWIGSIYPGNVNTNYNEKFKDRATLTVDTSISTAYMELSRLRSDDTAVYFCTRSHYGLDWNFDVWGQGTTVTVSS
# T1 sequence (VL, as listed by the source, chain 2 of 2): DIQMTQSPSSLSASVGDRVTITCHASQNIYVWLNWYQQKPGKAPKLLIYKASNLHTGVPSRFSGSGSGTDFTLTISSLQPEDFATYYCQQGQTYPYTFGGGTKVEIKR
# Procedure: (§1) Clonal phage were harvested as crude supematants and screened via standard ELISAs. […] Prior to the addition of clonal phage, wells were incubated with blocking buffer and CD28 antigen or blocking buffer alone. Without washing or aspirating, clonal phage supematants were then added to the wells and incubated for a short time. Wells were then washed followed by detection of bound phage using a horse radish conjugated anti-M13 antibody.
row,Binder,Anti-CD28 Fab signal (phage binding ELISA)
1,B1,2.18
2,B2,2.18
3,B3,2.16
4,B4,2.15
5,B5,2.14
6,B6,2.18
7,B7,2.18
8,B8,2.15
9,B9,2.15
10,B10,2.15
11,B11,2.14
12,B12,2.17
13,B13,2.21

# Biological target: T1, Anti-CD28 Fab (SEQ ID NOs: 696, 697)
# Test: phage ELISA on plate-bound anti-CD28 Fab pre-incubated with CD28 antigen as competitor
# Procedure: as §1
row,Binder,Anti-CD28 Fab signal in the presence of CD28 (phage binding ELISA)
1,B1,0.11
2,B2,0.07
3,B3,0.08
4,B4,0.07
5,B5,0.07
6,B6,0.06
7,B7,0.06
8,B8,0.08
9,B9,0.06
10,B10,0.07
11,B11,0.06
12,B12,0.07
13,B13,0.09

# Biological target: T2, Anti-CD28 Fab (SEQ ID NOs: 696, 697)
# T2 construct: In the phage ELISA the Fab was biotinylated and captured on neutravidin coated plates
# Test: phage binding ELISA; biotinylated anti-CD28 Fab on neutravidin plate, bound phage detected with anti-M13-HRP;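 further: clonal phage tested as crude supernatants, given a short incubation in the Fab-captured wells before bound phage were read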
# T2 sequence (VH, as listed by the source, chain 1 of 2): as the sequence (VH, as listed by the source, chain 1 of 2) above
# T2 sequence (VL, as listed by the source, chain 2 of 2): as the sequence (VL, as listed by the source, chain 2 of 2) above
# Procedure: (§2) Clonal phage were harvested as crude supematants and screened via standard ELISAs. […] Prior to the addition of clonal phage, wells were incubated with blocking buffer and CD28 antigen or blocking buffer alone. Without washing or aspirating, clonal phage supematants were then added to the wells and incubated for a short time. Wells were then washed followed by detection of bound phage using a horse radish conjugated anti-M13 antibody. Clonal phage of interest were then sent for sequence analysis.
row,Binder,Anti-CD28 Fab signal (phage binding ELISA)
1,B14,1.89
2,B15,1.94
3,B16,1.93
4,B17,1.91
5,B18,1.9
6,B19,1.9
7,B20,1.92
8,B21,1.95
9,B22,1.93
10,B23,1.92
11,B24,1.89
12,B25,1.95
13,B26,1.95
14,B27,1.92
15,B28,1.93

# Biological target: T2, Anti-CD28 Fab (SEQ ID NOs: 696, 697)
# Test: phage binding ELISA on captured anti-CD28 Fab, wells pre-incubated with CD28 antigen as competitor
# Procedure: as §2
row,Binder,Anti-CD28 Fab signal in the presence of CD28 (phage binding ELISA)
1,B14,0.09
2,B15,0.06
3,B16,0.09
4,B17,0.17
5,B18,0.07
6,B19,0.08
7,B20,0.1
8,B21,0.06
9,B22,0.07
10,B23,0.08
11,B24,0.08
12,B25,0.06
13,B26,0.07
14,B27,0.06
15,B28,0.08

# Biological target: T3, Anti-CD28 Fab (SEQ ID NOs: 696, 697)
# T3 construct: In the phage ELISA the Fab was biotinylated and captured on neutravidin coated plates
# Test: phage ELISA; biotinylated anti-CD28 Fab on neutravidin plate, clonal phage detected with anti-M13-HRP
# T3 sequence (VH, as listed by the source, chain 1 of 2): as the sequence (VH, as listed by the source, chain 1 of 2) above
# T3 sequence (VL, as listed by the source, chain 2 of 2): as the sequence (VL, as listed by the source, chain 2 of 2) above
# Procedure: as §1
row,Binder,"Phage binding ELISA, Anti-CD28 Fab signal"
1,B29,1.83
2,B30,1.85
3,B31,1.83
4,B32,1.84
5,B33,1.87
6,B34,1.84
7,B35,1.84
8,B36,1.86

# Biological target: T3, Anti-CD28 Fab (SEQ ID NOs: 696, 697)
# Test: phage ELISA; captured anti-CD28 Fab pre-incubated with CD28 antigen as competitor, anti-M13-HRP
# Procedure: as §1
row,Binder,"Phage binding ELISA, Anti-CD28 Fab signal in the presence of CD28"
1,B29,0.06
2,B30,0.06
3,B31,0.08
4,B32,0.08
5,B33,0.08
6,B34,0.14
7,B35,0.07
8,B36,0.07
